Test results: publication PMC12442453

Key:
[1] = target: T1, human EPOR ectodomain (ECD) fused to a human Fc domain (EPOR-Fc), P19235; experiment: BLI; details: chain shown with the change; solution-phase Db-Fc, immobilized EPOR-Fc
T1 chain: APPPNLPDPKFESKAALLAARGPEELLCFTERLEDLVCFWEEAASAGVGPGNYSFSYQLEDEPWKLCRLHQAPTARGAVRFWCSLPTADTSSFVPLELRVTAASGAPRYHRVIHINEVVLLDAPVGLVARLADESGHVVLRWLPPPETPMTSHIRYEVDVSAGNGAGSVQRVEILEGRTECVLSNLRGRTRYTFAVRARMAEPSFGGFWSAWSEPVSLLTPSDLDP

[2] = target: T2, human EPOR, endogenous on TF-1 cells (human (endogenous in TF-1)) (UniProt P19235)
T2 sequence: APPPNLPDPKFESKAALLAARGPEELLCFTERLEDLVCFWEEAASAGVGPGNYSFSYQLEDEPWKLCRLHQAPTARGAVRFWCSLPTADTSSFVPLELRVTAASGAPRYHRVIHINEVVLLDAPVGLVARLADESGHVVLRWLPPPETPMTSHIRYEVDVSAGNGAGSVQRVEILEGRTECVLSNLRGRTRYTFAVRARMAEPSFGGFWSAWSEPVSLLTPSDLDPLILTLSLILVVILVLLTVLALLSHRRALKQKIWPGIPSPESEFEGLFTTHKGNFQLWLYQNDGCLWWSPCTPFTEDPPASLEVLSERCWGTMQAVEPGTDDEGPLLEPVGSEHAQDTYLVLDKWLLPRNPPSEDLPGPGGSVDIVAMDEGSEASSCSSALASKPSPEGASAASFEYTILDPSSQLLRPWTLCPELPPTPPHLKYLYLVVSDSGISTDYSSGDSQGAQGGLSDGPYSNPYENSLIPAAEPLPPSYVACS

[3] = target: VL–VH 1.1 without an Fc domain; experiment: crystal structure; VL–VH 1.1 alone, space group P21, 2.06 Å, four chains in the asymmetric unit; 20% PEG8000, 100 mM CHES

B1: Db-Fc 1 L:Y109D; L:I116F; H:Y35R; H:I39M; H:Y59H; H:S63G; H:G114S (protein)
chain 1: EVQLVESGGGLVQPGGSLRLSCAASGFNLRSYYMHWVRQAPGKGLEWVASISPHYGYTYYADSVKGRFTISADTSKNTAYLQMNSLRAEDTAVYYCARHGYSAMDYWGQGTLVTVSS
chain 2: DIQMTQSPSSLSASVGDRVTITCRASQSVSSAVAWYQQKPGKAPKLLIYSASSLYSGVPSRFSGSRSGTDFTLTISSLQPEDFATYYCQQSSDSLFTFGQGTKVEIK
Kd [1]: 3.8 nM

B2: Db-Fc 1.3 (Fc fusion)
VH: EVQLVESGGGLVQPGGSLRLSCAASGFNLRSYYMHWVRQAPGKGLEWVASISPHYGYTYYADSVKGRFTISADTSKNTAYLQMNSLRAEDTAVYYCARHGYSAMDYWGQGTLVTVSS
VL: DIQMTQSPSSLSASVGDRVTITCRASQSVSSAVAWYQQKPGKAPKLLIYSASSLYSGVPSRFSGSRSGTDFTLTISSLQPEDFATYYCQQSSDSLFTFGQGTKVEIK
UT-7/Epo cell proliferation, EC50; Hb-Fc3 fraction of variant 1.3 (putative hexamer) [2]: 1.1 nM | UT-7/Epo cell proliferation, EC50; purified Db-Fc fraction of variant 1.3 (putative dimer) [2]: 16 nM | UT-7/Epo cell proliferation, EC50; unfractionated Db-Fcmix 1.3 [2]: 1.8 nM | UT-7/Epo cell proliferation, maximum response; Hb-Fc3 fraction of variant 1.3 (putative hexamer) [2]: 3.4e+06 RLU | UT-7/Epo cell proliferation, maximum response; purified Db-Fc fraction of variant 1.3 (putative dimer) [2]: 600000 RLU | UT-7/Epo cell proliferation, maximum response; unfractionated Db-Fcmix 1.3 [2]: 2.5e+06 RLU

B3: VL–VH 1.1 without an Fc domain (protein)
VH: EVQLVESGGGLVQPGGSLRLSCAASGFNLRSYYMHWVRQAPGKGLEWVASISPYYSYTYYADSVKGRFTISADTSKNTAYLQMNSLRAEDTAVYYCARHGYGAMDYWGQGTLVTVSS
VL: DIQMTQSPSSLSASVGDRVTITCRASQSVSSAVAWYQQKPGKAPKLLIYSASSLYSGVPSRFSGSRSGTDFTLTISSLQPEDFATYYCQQSSYSLITFGQGTKVEIK
stoichiometry N [3]: 4
